Reference: paper PMC8514943, “^68Ga-Labeled GX1 Dimer: A Novel Probe for PET/Cerenkov Imaging Targeting Gastric Cancer” (Frontiers in Oncology, 2021)
Read-outs that look alike come from different tables or passages of the source. Positions of bridges follow the written chain, without caps; N, C: chain ends. Residues, ends and D or L forms follow the SMILES beside them. *: point of attachment. DOTA = O=C(O)CN1CCN(CC(=O)O)CCN(CC(=O)*)CCN(CC(=O)O)CC1

What was measured:
[1] = 37°C, determined at 0, 30, 60, 90 min, value holds for 90 min, radioactive TLC
Description: We used four kinds of solutions to observe the stability of the probes, namely, raw solution, normal saline, fresh mouse serum, and human serum. The specific methods were as follows: the probe and each solution were mixed according to a volume ratio of 1:100, and the original solution was kept as a control. The radiochemical purity of the solution was determined at 0, 30, 60, and 90 min. A curve was drawn to observe the stability of the probe in vitro and to speculate whether the probe would be removed from the standard in vivo.
Four kinds of solutions were used to observe the stability of the probe, namely, raw solution, normal saline, fresh mouse serum, and human serum. The probe was mixed with each solution at a volume ratio of 1:100, and the original solution was retained as a control. The radiochemical purity of the solution was determined after incubation for 0, 30, 60, and 90 min at 37°C.

[2] = system: BGC-823 tumors; test: Biodistribution in tumor-bearing nude mice; assay type: in vivo, nude BALB/c mice
Description: All of the experiments were performed according to a protocol approved by the Fourth Military Medical University (FMMU) Animal Care and Use Committee. A total of 0.2 ml of cell suspension (BGC823, 2 × 10^6 cells) was implanted by subcutaneous injection into the right upper limb of athymic female nude BALB/c mice (age, 4–6 weeks; weight, 15–20 g). When the diameter of the tumor reached approximately 8 mm, it could be used for imaging. […] For the biodistribution of the probes, 3.7 × 10^6 Bq of probe was injected intravenously. […] The percentage of injected dose per gram (%ID/g) was calculated. […] The %ID/g was calculated as described previously.

## NCCCC[C@H](NC(=O)[C@H](CCC(=O)O)NC(=O)[C@H](CCCCN)NC(=O)[C@@H]1CSSC[C@H](NC(=O)CN2CCN(CC(=O)O)CCN(CC(=O)O)CCN(CC(=O)O)CC2)C(=O)NCC(=O)N[C@@H](CC(N)=O)C(=O)N[C@@H](CO)C(=O)N[C@@H](CC(N)=O)C(=O)N2CCC[C@H]2C(=O)N[C@@H](CCCCN)C(=O)N[C@@H](CO)C(=O)N1)C(=O)N[C@H]1CSSC[C@@H](C(=O)O)NC(=O)[C@H](CO)NC(=O)[C@H](CCCCN)NC(=O)[C@@H]2CCCN2C(=O)[C@H](CC(N)=O)NC(=O)[C@H](CO)NC(=O)[C@H](CC(N)=O)NC(=O)CNC1=O [^68Ga-DOTA-KEK-(GX1)2, metal not drawn] ({DOTA}-CGNSNPKSCKEKCGNSNPKSC-OH; disulfide 1-9, 13-21)
[1]; fresh mouse serum, probe:solution 1:100 v/v
  labeling rate (radiochemical purity) remaining: above 95%
[1]; human serum, probe:solution 1:100 v/v
  labeling rate (radiochemical purity) remaining: above 95%
[1]; normal saline, probe:solution 1:100 v/v
  labeling rate (radiochemical purity) remaining: above 95%
[1]; raw (original) solution kept as control
  labeling rate (radiochemical purity) remaining: above 95%
[2]; 3.7 × 10^6 Bq i.v., 30, 60, 90 min, while kidney and liver radioactivity reduced rapidly
  radiation of the tumor over time: decreased relatively slowly
[2]; 3.7 × 10^6 Bq i.v., 60 min, except for the liver and kidney
  %ID/g of the tumor compared with organs: higher than that of other normal organs
[2]; 3.7 × 10^6 Bq i.v., 60 min postinjection
  uptake by tumors compared between probes (%ID/g): much higher than that of ^68Ga-DOTA-GX1
[2]; tumor/nontumor ratios, 30, 60, 90 min after injection
  T/NT ratios: increased over time
